Positions count from the first letter of the chain named.
Columns and labels:
[1] = test system: 43-8 low affinity synTF + 3x syntrophin PDZ clamp (artificial); assay: FP; details: nH 2.55; synTF titration with 3-PDZ clamp
[2] = target: T1, 43-8 (ZF1) high affinity synTF (artificial); assay: FP; fluorescence anisotropy competition; Zn2+, 25 C; details: tags: N-terminal MBP; C-terminal GS linker + syntrophin ligand S5 (VKESLV)
T1 chain: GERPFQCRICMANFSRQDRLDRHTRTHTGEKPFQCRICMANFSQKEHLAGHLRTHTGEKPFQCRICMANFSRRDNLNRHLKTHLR
Method: (§1) Sequences for both sets of DBM affinity variants are listed on the right. Residues mutated from the WT sequence are indicated by bold type.
(§2) All assays were conducted in 20 mM Tris, pH 7.5, 100 mM […], 50 μM ZnCl2 buffer at 25° C. Proteins, probes, and competitor oligos were added to a final volume of 300 μL. Probes were used at 10 nM in all experiments. For complex assembly experiments (FIG. 1C), indicated concentrations of MBP-ZF₄₃₋₈ harboring a VSKESLV* ligand (SEQ ID NO: 120) (see e.g., FIG. 5A-FIG. 5B, FIG. 7A-FIG. 7B) were titrated against 5 μM concentrations of clamp. Mixtures were allowed to equilibrate at 25° C. for 10 min in Costar black 96-well plates prior to reading. Fluorescence anisotropy (FA) measurements were made at 494 nm using a SpectraMax M5 (Molecular Devices) fluorescence plate reader. For all measurements, anisotropy (r) was calculated using the following equation, wherein I_{∥} and I_{⊥} are parallel and perpendicular fluorescence, respectively:
(§3) TF-DBM binding constants were measured in vitro by fluorescence anisotropy (FA). Recombinant proteins were purified and DBM oligos prepared as described herein. […] Affinities for the interaction were measured as a function of the increase in fluorescence anisotropy resulting from binding of the fusion to a fluorescently labeled (FITC) oligo probe (data not shown). Oligo probe binding to ZF affinity variants was measured. MBP-ZF was titrated against 10 nM oligo probe. […] Kd values were extracted by fitting data to a quadratic binding equation (data not shown). Competition binding experiments were performed to measure binding constants for DBM affinity variants.

[3] = target: T2, 43-8 (ZF1) low affinity synTF (artificial, R-to-A backbone (low affinity allele, already in ref)); assay: as above; details: tags: N-terminal MBP; C-terminal GS linker + syntrophin ligand S5 (VKESLV)
T2 chain: T1 chain with R3A
Method: as §1, §2, §3

[4] = target: T3, 42-10 (ZF2) low affinity synTF (artificial, R-to-A backbone (low affinity allele, already in ref)); assay: as above; details: tags: N-terminal MBP; C-terminal GS linker + syntrophin ligand S5 (VKESLV)
T3 chain: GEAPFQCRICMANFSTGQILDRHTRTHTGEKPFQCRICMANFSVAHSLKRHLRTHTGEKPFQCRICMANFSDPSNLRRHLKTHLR
Method: as §1, §2, §3

[5] = target: T4, 42-10 (ZF2) high affinity synTF (artificial); assay: FP; fluorescence anisotropy competition; 20 mM Tris pH 7.5, 100 mM NaCl, 50 uM ZnCl2, 25 C; details: tags: N-terminal MBP; C-terminal GS linker + syntrophin ligand S5 (VKESLV)
T4 chain: T3 chain with A3R
Method: as §1, §2
TF-DBM binding constants were measured in vitro by fluorescence anisotropy (FA). Recombinant proteins were purified and DBM oligos prepared as described herein. […] Affinities for the interaction were measured as a function of the increase in fluorescence anisotropy resulting from binding of the fusion to a fluorescently labeled (FITC) oligo probe (data not shown). Oligo probe binding to ZF affinity variants was measured. […]

[6] = target: T1, 43-8 (ZF1) high affinity synTF; assay: FP; fluorescence anisotropy; Zn2+, 25 C; details: tags: N-terminal MBP; C-terminal GS linker + syntrophin ligand S5 (VKESLV)
Method: as §2
as §3, with “variants. […] Competitor oligo Kₐ values were extracted by fitting data (converted to fraction probe bound) to a cubic equation describing competitive binding (see e.g., FIG. 6). Sequences for both sets of DBM affinity variants are listed on the right of FIG. 6.” for “variants.”

[7] = target: T2, 43-8 (ZF1) low affinity synTF; assay: FP; fluorescence anisotropy; Zn2+, 25 C; details: tags: N-terminal MBP; C-terminal GS linker + syntrophin ligand S5 (VKESLV)
Method: as §2
as §3, with “variants. […] Competitor oligo Kₐ values were extracted by fitting data (converted to fraction probe bound) to a cubic equation describing competitive binding (see e.g., FIG. 6). Sequences for both sets of DBM affinity variants are listed on the right of FIG. 6.” for “variants.”

[8] = target: T2, 43-8 (ZF1) low affinity synTF; assay: FP; no clamp; nH 1.07; details: tags: N-terminal MBP; C-terminal GS linker + syntrophin ligand S5 (VKESLV); label: fluorescein on bottom-strand thymidine
Method: as §2, with “respectively: […]” for “respectively:”

[9] = target: T5, MBP-erb. (MBP fusion of the erbin PDZ domain) (Mus musculus (Mouse), UniProt Q80TH2 1304-1387, limits assumed); assay: fluorescence anisotropy competition; 43-8 synTF-ligand fusion titrated against MBP-erbin PDZ and FITC peptide probe
T5 construct: also called MBP-PDZ; pCB425
T5 chain: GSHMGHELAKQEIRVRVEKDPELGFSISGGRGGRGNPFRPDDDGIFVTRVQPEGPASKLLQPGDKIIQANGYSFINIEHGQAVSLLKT
Method: (§4) Probe concentration was assessed by measuring Abs490. Competitor peptides were purified as MBP-ZF43-8 fusions (see e.g., FIG. 5A-FIG. 5B, FIG. 7A-FIG. 7B).
as §2
(§5) PDZ-ligand binding constants were measured in vitro by fluorescence anisotropy. Recombinant proteins were purified as described herein. […] Peptide probe binding to PDZ domain was measured. […] Kₐ values were extracted by fitting data to a quadratic binding equation (data not shown). Competition binding experiments were conducted to measure binding constants for ligand affinity variants. […] accompanying displacement of the probe by the competitor was measured, and competitor ligand Kd values were extracted by fitting data (converted to fraction probe bound) to a cubic equation describing competitive binding (see e.g., FIG. 7A).

[10] = target: T6, MBP-syn. (MBP fusion of the syntrophin PDZ domain) (UniProt Q28626 83-177); assay: thermodynamic model fit; model-fitted
T6 chain: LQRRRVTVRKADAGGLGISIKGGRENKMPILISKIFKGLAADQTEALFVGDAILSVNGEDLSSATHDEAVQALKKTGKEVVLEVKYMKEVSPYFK

[11] = target: T7, MBP-syn. (MBP fusion of the syntrophin PDZ domain) (Oryctolagus cuniculus (Rabbit), UniProt Q28626 83-177); assay: fluorescence anisotropy competition; 43-8 synTF-ligand fusion titrated against MBP-syntrophin PDZ and FITC-VKESLV probe
T7 construct: Used as an MBP fusion in the PDZ-ligand anisotropy assays; also called MBP-PDZ; pCB378
T7 sequence: T6 chain
Method: as §4, §2, §5

[12] = target: T5, MBP-erb. (MBP fusion of the erbin PDZ …); assay: fluorescence anisotropy competition (nb indicates no binding)
Method: as §4, §2, §5

[13] = target: T7, MBP-syn. (MBP fusion of the syntrophin …); assay: as above
Method: as §4, §2, §5

[14] = target: T6, MBP-syn. (MBP fusion of the syntrophin …); assay: fluorescence anisotropy competition; experimentally-measured

Molecule: GAATTCGTCCTCACTCTTCGGTCCTCACTCTTCGGTCCTCACTCTGGATCC (double strand) [43-8 nc=3 probe]
- EC50 [1]: 5.1 nM

B1: 43-8 DBM2 (dsDNA)
DNA 1: ACAGTGAGGAC
DNA 2: GTCCTCACTGT
- Kd [2]: 30 nM
- Kd [3]: 143 nM

B2: 42-10 DBM7 (dsDNA)
DNA 1: AGACTCTGCTC
DNA 2: GAGCAGAGTCT
- Kd [4]: 415 nM

B3: 42-10 DBM4 (dsDNA)
DNA 1: ACACGCTGCTC
DNA 2: GAGCAGCGTGT
- Kd [4]: 67 nM

B4: 42-10 DBM2 (dsDNA)
DNA 1: TGACGCTGCTT
DNA 2: AAGCAGCGTCA
- Kd [4]: 5.2 nM
- Kd [5]: 0.94 nM

B5: 43-8 DBM1 (dsDNA)
DNA 1: AGAGTGAGGAC
DNA 2: GTCCTCACTCT
- Kd [6]: 6.5 nM
- Kd [7]: 13.6 nM

B6: 42-10 DBM5 (dsDNA)
DNA 1: AGACGCTACTC
DNA 2: GAGTAGCGTCT
- Kd [4]: 95 nM

B7: 42-10 DBM6 (dsDNA)
DNA 1: AGACGCTGCTA
DNA 2: TAGCAGCGTCT
- Kd [4]: 218 nM

B8: 42-10 DBM3 (dsDNA)
DNA 1: AGACGGTGCTC
DNA 2: GAGCACCGTCT
- Kd [4]: 32 nM

B9: 43-8 nc=2 probe (dsDNA)
DNA 1: GAATTCGTCCTCACTCTTCGGTCCTCACTCTGGATCC
DNA 2: GGATCCAGAGTGAGGACCGAAGAGTGAGGACGAATTC
- EC50 [8]: 210 nM

B10: 43-8 DBM3 (dsDNA)
DNA 1: ATAGTGAGGAC
DNA 2: GTCCTCACTAT
- Kd [2]: 42 nM
- Kd [3]: 224 nM

B11: MBP-43-8(low)-syn. lig. (S4) (other, not shown: large carriers)
chain: GEAPFQCRICMANFSRQDRLDRHTRTHTGEKPFQCRICMANFSQKEHLAGHLRTHTGEKPFQCRICMANFSRRDNLNRHLKTHLRGSGSGIRETIV
notes: also called IRETIV; pCB384
- Kd [9]: 3460 nM
- Kd [10]: 400 nM
- Kd [11]: 880 nM

B12: 43-8 synTF with appended erbin ligand E3 (PVDSWV) (other, not shown: large carriers)
chain: B11 chain with I91P, R92V, E93D, T94S, I95W
- Kd [9]: 420 nM
- Kd [11]: 1570 nM

B13: MBP-43-8(low)-syn. lig.(no bind) (other, not shown: large carriers; small tags and cut ends)
chain: B11 chain with I91V, R92K, T94A, I95A, V96A
notes: also called VKEAAA; nb
- binding result [12]: no binding

B14: 43-8 synTF with appended erbin ligand E1 (WLVTWV) (other, not shown: large carriers)
chain: B11 chain with I91W, R92L, E93V, I95W
- binding result [13]: no binding
- Kd [9]: 100 nM

B15: MBP-43-8(low)-syn. lig. (S7) (other, not shown: large carriers)
chain: B11 chain with I91H, R92L, I95F, V96F
notes: also called HLETFF; pCB387
- binding result [12]: no binding
- Kd [11]: 43200 nM

B16: 43-8 synTF with appended erbin ligand E2 (WLKTWV) (other, not shown: large carriers)
chain: B11 chain with I91W, R92L, E93K, I95W
- binding result [13]: no binding
- Kd [9]: 330 nM

B17: MBP-43-8(low)-syn. lig. (S2) (other, not shown: large carriers)
chain: B11 chain with V96L
notes: also called IRETIL; pCB381
- binding result [12]: no binding
- Kd [11]: 180 nM

B18: MBP-43-8(low)-syn. lig. (S3) (other, not shown: large carriers)
chain: B11 chain with E93W
notes: also called IRWTIV; pCB382
- Kd [9]: 1730 nM
- Kd [11]: 490 nM

B19: MBP-43-8(low)-syn. lig. (S6) (other, not shown: large carriers)
chain: B11 chain with I91V, R92K, T94A, I95L
notes: also called VKEALV; pCB386
- binding result [12]: no binding
- Kd [14]: 20300 nM
- Kd [11]: 27300 nM

B20: MBP-43-8(low)-syn. lig. (S5) (other, not shown: large carriers)
chain: B11 chain with I91V, R92K, T94S, I95L
notes: also called VKESLV; pCB385
- Kd [9]: 5710 nM
- Kd [10]: 2050 nM
- Kd [11]: 1970 nM

B21: MBP-43-8(low)-syn. lig. (S1) (other, not shown: large carriers)
chain: B11 chain with V96I
notes: also called IRETII; pCB380
- binding result [12]: no binding
- Kd [11]: 62 nM

Reference: US20200002710A1, “SYSTEMS AND METHODS FOR CONTROL OF GENE EXPRESSION” (TRUSTEES OF BOSTON UNIVERSITY, published 2020)
